Experimental data from US20210373021A1.

Target: SNAP-25 Reporter 1 (human) (UniProt P60880)
Assay: cell-based or functional assay

UniProt P60880, sequence (P60880 other isoform, or with tags, fused parts or gaps limits assumed): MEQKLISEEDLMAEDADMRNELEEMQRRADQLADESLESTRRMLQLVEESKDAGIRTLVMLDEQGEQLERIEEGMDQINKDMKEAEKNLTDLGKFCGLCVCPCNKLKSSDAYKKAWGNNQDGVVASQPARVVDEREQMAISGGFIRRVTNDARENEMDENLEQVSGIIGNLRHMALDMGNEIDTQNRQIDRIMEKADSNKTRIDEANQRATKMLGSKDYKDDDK

Galderma BoNT/A drug product QM-1114 (from UniProt P0DPI0 2-1296) (enzyme)
EC50 of SNAP-25 cleavage (Western blot), 4 hours at ambient temperature: 844 U/ml
EC50 of SNAP-25 cleavage (Western blot), 22 hours at 37° C.: 687 U/ml
EC50 of SNAP-25 cleavage (Western blot), 22 hours at room temperature: 204 U/ml
EC50 of uncleaved product in RLU (sandwich ELISA), 22 hours at 37° C.: 112 U/ml
EC50 of uncleaved product in RLU (sandwich ELISA), 22 hours at room temperature: 55.3 U/ml
